Results on 1 molecule are retold here after PMC7305985 (Molecular cell, 2020).

This assay deals with Histone H4 N-terminal peptide, biotinylated (1–23) (UniProt P62805 2-24, biotin (position not given)). Description: pull-down.

Regarding SATICRVCQKPGDLVMCNQCEFCFHLDCHLPALQDVPGEEWSCSLCHVLP (domain or fragment, UniProt Q13263 624-673, looked up) [GST-tagged KAP1 PHD (residues 624–673)], the binding result was “binds”.
